In patent publication US20250270325A1:

Target: target antigen
Experiment: antigen binding ELISA, antigen coated on plate

isotype control (antibody)
no binding up to (highest concentration tested): > 5 µM
